From patent US20030161809A1 (published 2003)

Legend:
[1] = target: pIgR Domain 6 GST (D6-GST) fusion protein, species not named; experiment: SPR (Biacore), 1:1 Langmuir model; ligand not given
[2] = target: T1, GST-Human-stalk fusion protein (Schistosoma japonica; human, UniProt P01833 550-638); experiment: SPR (Biacore), D6-GST captured on anti-GST antibody, global fit
T1 construct: domain: stalk; About 37.8 kD; also called D6 human; human pIgR Domain 6 GST (D6-GST) fusion protein; not shown: glutathione-S-transferase from Schistosoma japonica, from vector pGEX-2TK

[3] = target: T2, GST-Cyn monkey-stalk fusion protein (Schistosoma japonica; cynomolgus monkey); experiment: as above
T2 construct: also called D6 cyno; Cyno; not shown: GST (Schistosoma japonicum, from pGEX-2TK) and its linker before the GS
T2 chain: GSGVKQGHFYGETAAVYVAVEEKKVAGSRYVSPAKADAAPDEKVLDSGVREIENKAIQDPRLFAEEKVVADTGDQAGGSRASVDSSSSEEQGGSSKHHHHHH

[4] = target: T3, GST-Rat-stalk fusion protein (Schistosoma japonica; rat, UniProt P15083 535-643); experiment: as above
T3 construct: domain: stalk; About 39.3 kD, no 6xHis tag; also called [GST]-[rat domain 6] fusion protein; D6 rat; not shown: glutathione-S-transferase from Schistosoma japonica, from vector pGEX-2TK
T3 sequence (looked up): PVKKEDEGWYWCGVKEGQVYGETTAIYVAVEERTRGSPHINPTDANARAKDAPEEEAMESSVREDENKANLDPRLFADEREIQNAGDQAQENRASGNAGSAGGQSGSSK

[5] = target: T1, GST-Human-stalk fusion protein; experiment: SPR (Biacore), D6-GST captured on anti-GST antibody, 1:1 Langmuir global fit
[6] = target: T2, GST-Cyn monkey-stalk fusion protein; experiment: as above
[7] = target: T3, GST-Rat-stalk fusion protein; experiment: as above
[8] = target: T1, GST-Human-stalk fusion protein; experiment: SPR (Biacore), D6-GST captured on anti-GST antibody
[9] = target: T2, GST-Cyn monkey-stalk fusion protein; experiment: as above
[10] = target: T3, GST-Rat-stalk fusion protein; experiment: as above
[11] = target: pIgR expressed on transfected MDCK cells; experiment: cell-based or functional assay

T1 sequence (P01833 550-638, tags left off): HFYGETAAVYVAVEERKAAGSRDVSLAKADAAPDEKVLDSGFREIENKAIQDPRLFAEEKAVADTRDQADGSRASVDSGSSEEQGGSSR

B1: single chain antibody sFv5A (scFv)
scFv: QVQLQQSGGGVVQPGRSLRLSCAASGFTFSSYAMHWVRQAPGKGLEWVSAISGSGGSTYYADSVKGRFTISRDNAKNSLYLQMNSLRAEDTAVYYCARDTRGYFDLWGRGTLVTVSSGGGGSGGGGSGGGGSSELTQDPAMSVALGQTVRITCQGDSLRKYHASWYQQRPRQAPRLVVYGKNERPSGIPERFSGSTSGDTASLTISGLQAEDEADYYCHSRDSNADLVVFGGGTKVTVLGAAAEQKLISEEDLNGAAHHHHHH
- Ka [1]: 6.31e+06 M⁻¹
- Kd [1]: 158 nM
- koff [1]: 0.00464 s⁻¹
- kon [1]: 29300 M⁻¹ s⁻¹
- Ka [2]: 2.16e+07 M⁻¹
- Kd [2]: 46.3 nM
- koff [2]: 0.00337 s⁻¹
- kon [2]: 72900 M⁻¹ s⁻¹
- Ka [3]: 1.93e+07 M⁻¹
- Kd [3]: 51.8 nM
- koff [3]: 0.00397 s⁻¹
- kon [3]: 76700 M⁻¹ s⁻¹
- Ka [4]: 2.95e+07 M⁻¹
- Kd [4]: 33.9 nM
- koff [4]: 0.00262 s⁻¹
- kon [4]: 77300 M⁻¹ s⁻¹

B2: sFv5AF-Cys (starting material, mixture of monomer and dimer) (scFv)
scFv: DYKAKQVQLVQSGGGVVQPGRSLRLSCAASGFTFSSYAMHWVRQAPGKGLEWVSAISGSGGSTYYADSVKGRFTISRDNAKNSLYLQMNSLRAEDTAVYYCARDTRGYFDLWGRGTLVTVSSGGGGSGGGGSGGGGSSELTQDPAMSVALGQTVRITCQGDSLRKYHASWYQQRPRQAPRLVVYGKNERPSGIPERFSGSTSGDTASLTISGLQAEDEADYYCHSRDSNADLVVFGGGTKVTVLGGGGGSCAAAEQKLISEEDLNGAAHHHHHH
notes: also called s5AF-Cys
- Ka [1]: 9.84e+06 M⁻¹
- Kd [1]: 102 nM
- koff [1]: 0.00464 s⁻¹
- kon [1]: 37600 M⁻¹ s⁻¹
- Ka [5]: 6.71e+08 M⁻¹
- Kd [5]: 1.49 nM
- koff [5]: 0.00145 s⁻¹
- kon [5]: 976000 M⁻¹ s⁻¹
- Ka [6]: 7.7e+08 M⁻¹
- Kd [6]: 1.3 nM
- koff [6]: 0.00137 s⁻¹
- kon [6]: 1.06e+06 M⁻¹ s⁻¹
- Ka [7]: 4.36e+08 M⁻¹
- Kd [7]: 2.3 nM
- koff [7]: 0.00282 s⁻¹
- kon [7]: 1.23e+06 M⁻¹ s⁻¹

B3: [dimer sFv5AF-Cys]-SPDP-[15 kD protein] conjugate (Az019) (other)
scFv 1: B2 scFv
scFv 2: B2 scFv
notes: also called AzO19; Az0019
- Ka [2]: 1.39e+08 M⁻¹
- Kd [2]: 7.18 nM
- koff [2]: 0.00109 s⁻¹
- kon [2]: 152000 M⁻¹ s⁻¹
- Ka [3]: 1.52e+08 M⁻¹
- Kd [3]: 6.57 nM
- koff [3]: 0.00108 s⁻¹
- kon [3]: 164000 M⁻¹ s⁻¹
- Ka [4]: 1.06e+08 M⁻¹
- Kd [4]: 9.39 nM
- koff [4]: 0.00196 s⁻¹
- kon [4]: 209000 M⁻¹ s⁻¹

B4: purified monomer sFv5AF-Cys (scFv)
scFv: B2 scFv
notes: also called 5Afcys Monomer; sFv5AF-Cys monomer
- Ka [5]: 1.77e+08 M⁻¹
- Kd [5]: 5.64 nM
- koff [5]: 0.00241 s⁻¹
- kon [5]: 428000 M⁻¹ s⁻¹
- Ka [6]: 1.73e+08 M⁻¹
- Kd [6]: 5.77 nM
- koff [6]: 0.00256 s⁻¹
- kon [6]: 443000 M⁻¹ s⁻¹
- Ka [7]: 1.77e+08 M⁻¹
- Kd [7]: 5.63 nM
- koff [7]: 0.00303 s⁻¹
- kon [7]: 538000 M⁻¹ s⁻¹

B5: [monomer sFv5AF-Cys]-SPDP-[15 kD protein] conjugate with c-myc tag (Az018a) (other)
scFv: B2 scFv
- Ka [2]: 9.62e+06 M⁻¹
- Kd [2]: 104 nM
- koff [2]: 0.00449 s⁻¹
- kon [2]: 43200 M⁻¹ s⁻¹
- Ka [3]: 9.69e+06 M⁻¹
- Kd [3]: 103 nM
- koff [3]: 0.00535 s⁻¹
- kon [3]: 51800 M⁻¹ s⁻¹
- Ka [4]: 1.24e+07 M⁻¹
- Kd [4]: 80.6 nM
- koff [4]: 0.0038 s⁻¹
- kon [4]: 47100 M⁻¹ s⁻¹

B6: purified dimer sFv5AF-Cys (scFv)
scFv: B2 scFv
notes: also called 5Afcys Dimer; sFv5AF-Cys dimer
- fold difference in affinity against the purified monomer [8]: ~3 fold
- fold difference in affinity against the purified monomer [9]: ~3 fold
- fold difference in affinity against the purified monomer [10]: ~3 fold
- Ka [5]: 5.02e+08 M⁻¹
- Kd [5]: 1.99 nM
- koff [5]: 0.00217 s⁻¹
- kon [5]: 1.09e+06 M⁻¹ s⁻¹
- Ka [6]: 4.61e+08 M⁻¹
- Kd [6]: 2.17 nM
- koff [6]: 0.00244 s⁻¹
- kon [6]: 1.12e+06 M⁻¹ s⁻¹
- Ka [7]: 5.01e+08 M⁻¹
- Kd [7]: 2 nM
- koff [7]: 0.00341 s⁻¹
- kon [7]: 1.71e+06 M⁻¹ s⁻¹

B7: [monomer sFv5AF-Cys]-SPDP-[15 kD protein] conjugate without c-myc tag (Az018b) (other)
scFv: DYKAKQVQLVQSGGGVVQPGRSLRLSCAASGFTFSSYAMHWVRQAPGKGLEWVSAISGSGGSTYYADSVKGRFTISRDNAKNSLYLQMNSLRAEDTAVYYCARDTRGYFDLWGRGTLVTVSSGGGGSGGGGSGGGGSSELTQDPAMSVALGQTVRITCQGDSLRKYHASWYQQRPRQAPRLVVYGKNERPSGIPERFSGSTSGDTASLTISGLQAEDEADYYCHSRDSNADLVVFGGGTKVTVLGGGGGSC
notes: also called Az0018b; not shown: the 15 kD protein (never identified); the exact point where the c-myc/His tail was lost
- Ka [2]: 9.3e+06 M⁻¹
- Kd [2]: 107 nM
- koff [2]: 0.00465 s⁻¹
- kon [2]: 43200 M⁻¹ s⁻¹
- Ka [3]: 9.5e+06 M⁻¹
- Kd [3]: 105 nM
- koff [3]: 0.00557 s⁻¹
- kon [3]: 52900 M⁻¹ s⁻¹
- Ka [4]: 1.28e+07 M⁻¹
- Kd [4]: 77.9 nM
- koff [4]: 0.00385 s⁻¹
- kon [4]: 49400 M⁻¹ s⁻¹

B8: single chain antibody sFv5AF (scFv)
scFv: DYKAKQVQLVQSGGGVVQPGRSLRLSCAASGFTFSSYAMHWVRQAPGKGLEWVSAISGSGGSTYYADSVKGRFTISRDNAKNSLYLQMNSLRAEDTAVYYCARDTRGYFDLWGRGTLVTVSSGGGGSGGGGSGGGGSSELTQDPAMSVALGQTVRITCQGDSLRKYHASWYQQRPRQAPRLVVYGKNERPSGIPERFSGSTSGDTASLTISGLQAEDEADYYCHSRDSNADLVVFGGGTKVTVLGAAAEQKLISEEDLNGAAHHHHHH
- percent transcytosis, pIgR expressing MDCK cells, overnight [11]: 2%
- Ka [1]: 4.47e+06 M⁻¹
- Kd [1]: 224 nM
- koff [1]: 0.00464 s⁻¹
- kon [1]: 27100 M⁻¹ s⁻¹
